Experimental data reported in patent publication US20100260668A1 (published 2010).
Where “and” joins values, the source holds several entries; their conditions need not be identical. Equal values may be shown once.

How the values were obtained:
HGF (HGF-His tag) [1] = biological target: T1, HGF (HGF-His tag) (UniProt P14210 32-728); experiment: Direct Bind ELISA, antigen on plate; C-terminal VD
T1 construct: Bought reagent
Protocol: (§1) Enzyme Linked Immunosorbent Assays to screen for antibodies that bind a desired target antigen were performed as follows. […] Plates were washed four times with PBS containing 0.02% Tween 20. Plates were blocked by the addition of 300 μL/well blocking solution (non-fat dry milk powder, various retail suppliers, diluted to 2% in PBS) for ½ hour at room temperature. Plates were washed four times after blocking with PBS containing 0.02% Tween 20.
(§2) Alternatively, one hundred microliters per well of 10 μg/ml of Histidine (His) tagged desired target antigen (R&D Systems, Minneapolis, Minn.) was added to ELISA plates coated with monoclonal mouse anti-polyHistidine antibody as described above and incubated for 1 hour at room temperature. Wells were washed four times with PBS containing 0.02% Tween 20.
(§3) One hundred microliters of antibody or DVD-Ig preparations diluted in blocking solution as described above was added to the desired target antigen plate or desired target antigen/FC fusion plate or the anti-polyHistidine antibody/His tagged desired target antigen plate prepared as described above and incubated for 1 hour at room temperature. Wells are washed four times with PBS containing 0.02% Tween 20.

[2] = biological target: T2, RON (MSP Receptor ECD-His tag) (UniProt Q04912 25-957, limits assumed); experiment: Direct Bind ELISA, antigen on plate; N-terminal VD
T2 construct: extracellular domain; Bought reagent
Protocol: as §1, §2, §3

biotinylated ErbB3 = biotinylated ErbB3 (UniProt P21860 20-643, limits assumed, biotinylated); experiment: capture ELISA, antibody captured by anti-human IgG Fc, biotinylated ErbB3
Protocol: The plates were washed with PBS containing 0.05% Tween 20 three times and blocked with 200 μl/well of 1% BSA/PBS for 1 hour at room temperature. Fifty μl of 5 nM DVD-Ig or antibody were added to each well and incubated for 1 hour at room temperature. […] The wells were washed three times, and 100 μl of ULTRA-TMB ELISA (Pierce, Rockford, Ill.) were added per well.

DLL4 (DLL4 ECD/His tag) [3] = biological target: T3, DLL4 (DLL4 ECD/His tag) (UniProt Q9NR61 27-529, limits assumed); experiment: Direct Bind ELISA, antigen on plate; N-terminal VD
T3 construct: extracellular domain; Bought reagent
Protocol: as §1, §2, §3

[4] = biological target: T2, RON (MSP Receptor ECD-His tag); experiment: Direct Bind ELISA, antigen on plate; C-terminal VD
Protocol: as §1, §2, §3

DLL4 (DLL4 ECD/His tag) [5] = biological target: T3, DLL4 (DLL4 ECD/His tag); experiment: Direct Bind ELISA, antigen on plate; C-terminal VD
Protocol: as §1, §2, §3

HGF-His tag = biological target: T4, HGF-His tag (UniProt P14210 32-728); experiment: direct bind ELISA (ref Ab)
T4 construct: Bought antigen coated on the ELISA plate; not shown: His tag

HGF (HGF-His tag) [6] = biological target: T1, HGF (HGF-His tag); experiment: Direct Bind ELISA, antigen on plate; N-terminal VD
Protocol: as §1, §2, §3

T1 sequence (P14210 32-728 limits assumed): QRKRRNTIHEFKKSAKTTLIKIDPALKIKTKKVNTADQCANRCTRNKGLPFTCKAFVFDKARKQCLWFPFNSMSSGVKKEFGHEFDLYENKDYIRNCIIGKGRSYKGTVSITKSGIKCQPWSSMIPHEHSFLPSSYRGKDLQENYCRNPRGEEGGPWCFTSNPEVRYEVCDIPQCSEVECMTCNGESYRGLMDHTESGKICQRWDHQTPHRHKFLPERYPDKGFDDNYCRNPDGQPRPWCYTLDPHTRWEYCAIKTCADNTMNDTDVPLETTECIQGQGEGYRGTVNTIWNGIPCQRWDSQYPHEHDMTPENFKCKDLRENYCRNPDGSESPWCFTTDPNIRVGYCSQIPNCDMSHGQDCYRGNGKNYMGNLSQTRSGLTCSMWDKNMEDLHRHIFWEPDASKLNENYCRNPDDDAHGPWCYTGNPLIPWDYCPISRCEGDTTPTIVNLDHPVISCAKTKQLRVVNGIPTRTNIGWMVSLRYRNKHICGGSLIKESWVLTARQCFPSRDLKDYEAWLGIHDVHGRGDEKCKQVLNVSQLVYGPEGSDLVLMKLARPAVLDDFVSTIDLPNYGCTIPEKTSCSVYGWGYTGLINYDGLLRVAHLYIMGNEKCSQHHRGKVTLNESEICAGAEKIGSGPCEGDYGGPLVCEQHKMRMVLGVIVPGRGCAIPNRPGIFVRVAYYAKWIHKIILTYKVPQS
T4 sequence (P14210 32-728 limits assumed): as above

B1: DVD033 (RON (seq. 1) and HGF (seq. 1) DVD-Ig) (bispecific antibody, IgG1)
VH: EVQLVQSGGGLVKPGGSLRLSCAASGFTFSSYAMHWVRQAPGKGLEWVAVISYDGSNKYYADSVKGRFTISRDNSKNTLYLQMNSLRAEDTAVYYCARFSGWPNNYYYYGMDVWGQGTTVTVSSASTKGPQVQLVESGGGLVKPGGSLRLSCAASGFTFSDYYMSWIRQAPGKGLEWVSYISSSGSTIYYADSVKGRFTISRDNAKNSLYLQMNSLRAEDTAVYYCARDEYNSGWYVLFDYWGQGTLVTVSS
VL: DVVMTQSPLSLPVTPGEPASISCRSSQSLLHSNGFNYVDWYLQKPGQSPHLLIYFGSYRASGVPDRFSGSGSGTDFTLKISRVEAEDVGVYYCMQALQTPPWTFGQGTKVEIRRTVAAPDIQMTQSPSSVSASVGDRVTITCRASQGISSWLAWYQQKPGKAPNLLIYEASSLQSGVPSRFGGSGSGTDFTLTISSLQPEDFATYYCQQANGFPWTFGQGTKVEIKR
notes: Outer AB005, inner AB012; HC vector V1 (wild-type hIgG1 constant), LC vector V2 (kappa constant); also called DVD033H; DVD033L
EC50 (HGF (HGF-His tag) [1]): 11.9 nM
EC50 [2]: 0.22 nM

B2: AB063 (antibody, human IgG1, kappa, V domains shown)
VH: EVQLVESGGGLVQPGGSLRLSCAASGFTFSIYSMNWVRQAPGKGLEWVSYISSSSSTIYYADSVKGRFTISRDNAKNSLYLQMNSLRDEDTAVYYCARDRGDFDAFDIWGQGTMVTVSS
VL: DIQMTQSPSSLSASVGDRVTITCQASQDITNYLNWYQQKPGKAPKLLIYDASNLETGVPSRFSGSGSGTDFTFTISSLQPEDIATYNCQQCENFPITFGQGTRLEIKR
EC50 (biotinylated ErbB3): 0.67 nM

B3: DVD044 (DLL4 (seq. 1) and VEGF (seq. 1) DVD-Ig) (bispecific antibody, IgG1)
VH: EVQLVESGGGLVQPGGSLRLSCAASGFTFTDNWISWVRQAPGKGLEWVGYISPNSGFTYYADSVKGRFTISADTSKNTAYLQMNSLRAEDTAVYYCARDNFGGYFDYWGQGTLVTVSSASTKGPEVQLVESGGGLVQPGGSLRLSCAASGYTFTNYGMNWVRQAPGKGLEWVGWINTYTGEPTYAADFKRRFTFSLDTSKSTAYLQMNSLRAEDTAVYYCAKYPHYYGSSHWYFDVWGQGTLVTVSS
VL: DIQMTQSPSSLSASVGDRVTITCRASQDVSTAVAWYQQKPGKAPKLLIYSASFLYSGVPSRFSGSGSGTDFTLTISSLQPEDFATTYYCQQSYTGTVTFGQGTKVEIKRTVAAPDIQMTQSPSSLSASVGDRVTITCSASQDISNYLNWYQQKPGKAPKVLIYFTSSLHSGVPSRFSGSGSGTDFTLTISSLQPEDFATYYCQQYSTVPWTFGQGTKVEIKR
notes: HC vector V1 (wild-type hIgG1 constant), LC vector V2 (kappa constant); also called DVD044H; DVD044L
EC50 (DLL4 (DLL4 ECD/His tag) [3]): 0.53 nM

B4: DVD047 (VEGF (seq. 1) and RON (seq. 1) DVD-Ig) (bispecific antibody, IgG1)
VH: EVQLVESGGGLVQPGGSLRLSCAASGYTFTNYGMNWVRQAPGKGLEWVGWINTYTGEPTYAADFKRRFTFSLDTSKSTAYLQMNSLRAEDTAVYYCAKYPHYYGSSHWYFDVWGQGTLVTVSSASTKGPEVQLVQSGGGLVKPGGSLRLSCAASGFTFSSYAMHWVRQAPGKGLEWVAVISYDGSNKYYADSVKGRFTISRDNSKNTLYLQMNSLRAEDTAVYYCARFSGWPNNYYYYGMDVWGQGTTVTVSS
VL: DIQMTQSPSSLSASVGDRVTITCSASQDISNYLNWYQQKPGKAPKVLIYFTSSLHSGVPSRFSGSGSGTDFTLTISSLQPEDFATYYCQQYSTVPWTFGQGTKVEIKRTVAAPDVVMTQSPLSLPVTPGEPASISCRSSQSLLHSNGFNYVDWYLQKPGQSPHLLIYFGSYRASGVPDRFSGSGSGTDFTLKISRVEAEDVGVYYCMQALQTPPWTFGQGTKVEIRR
notes: HC vector V1 (wild-type hIgG1 constant), LC vector V2 (kappa constant); also called DVD047H; DVD047L
EC50 [4]: 94.8 nM

B5: DVD043 (VEGF (seq. 1) and DLL4 (seq. 1) DVD-Ig) (bispecific antibody, IgG1)
VH: EVQLVESGGGLVQPGGSLRLSCAASGYTFTNYGMNWVRQAPGKGLEWVGWINTYTGEPTYAADFKRRFTFSLDTSKSTAYLQMNSLRAEDTAVYYCAKYPHYYGSSHWYFDVWGQGTLVTVSSASTKGPEVQLVESGGGLVQPGGSLRLSCAASGFTFTDNWISWVRQAPGKGLEWVGYISPNSGFTYYADSVKGRFTISADTSKNTAYLQMNSLRAEDTAVYYCARDNFGGYFDYWGQGTLVTVSS
VL: DIQMTQSPSSLSASVGDRVTITCSASQDISNYLNWYQQKPGKAPKVLIYFTSSLHSGVPSRFSGSGSGTDFTLTISSLQPEDFATYYCQQYSTVPWTFGQGTKVEIKRTVAAPDIQMTQSPSSLSASVGDRVTITCRASQDVSTAVAWYQQKPGKAPKLLIYSASFLYSGVPSRFSGSGSGTDFTLTISSLQPEDFATTYYCQQSYTGTVTFGQGTKVEIKR
notes: HC vector V1 (wild-type hIgG1 constant), LC vector V2 (kappa constant); also called DVD043H; DVD043L
EC50 (DLL4 (DLL4 ECD/His tag) [5]): 2.12 nM

B6: AB079 (antibody, human IgG1, kappa, V domains shown)
VH: EVQLVQSGAEVKKPGESLKISCKGSGYSFTTYWMHWVRQMPGKGLEWMGEINPTNGHTNYNPSFQGQVTISADKSISTAYLQWSSLKASDTAMYYCARNYVGSIFDYWGQGTLVTVSS
VL: DIQMTQSPSSLSASVGDRVTITCKASENVVSYVSWYQQKPGKAPKLLIYGASNRNTGVPSRFSGSGSGTDFTLTISSLQPEDFATYYCGQSYNYPYTFGQGTKLEIKR
notes: Vectors V1/V2
EC50 (HGF-His tag): 0.48 nM and 0.39 nM and 0.4 nM and 0.41 nM

B7: DVD048 (RON (seq. 1) and VEGF (seq. 1) DVD-Ig) (bispecific antibody, IgG1)
VH: EVQLVQSGGGLVKPGGSLRLSCAASGFTFSSYAMHWVRQAPGKGLEWVAVISYDGSNKYYADSVKGRFTISRDNSKNTLYLQMNSLRAEDTAVYYCARFSGWPNNYYYYGMDVWGQGTTVTVSSASTKGPEVQLVESGGGLVQPGGSLRLSCAASGYTFTNYGMNWVRQAPGKGLEWVGWINTYTGEPTYAADFKRRFTFSLDTSKSTAYLQMNSLRAEDTAVYYCAKYPHYYGSSHWYFDVWGQGTLVTVSS
VL: DVVMTQSPLSLPVTPGEPASISCRSSQSLLHSNGFNYVDWYLQKPGQSPHLLIYFGSYRASGVPDRFSGSGSGTDFTLKISRVEAEDVGVYYCMQALQTPPWTFGQGTKVEIRRTVAAPDIQMTQSPSSLSASVGDRVTITCSASQDISNYLNWYQQKPGKAPKVLIYFTSSLHSGVPSRFSGSGSGTDFTLTISSLQPEDFATYYCQQYSTVPWTFGQGTKVEIKR
notes: HC vector V1 (wild-type hIgG1 constant), LC vector V2 (kappa constant); also called DVD048H; DVD048L
EC50 [2]: 0.46 nM

B8: AB012 (antibody, human IgG1, kappa, V domains shown)
VH: QVQLVESGGGLVKPGGSLRLSCAASGFTFSDYYMSWIRQAPGKGLEWVSYISSSGSTIYYADSVKGRFTISRDNAKNSLYLQMNSLRAEDTAVYYCARDEYNSGWYVLFDYWGQGTLVTVSS
VL: DIQMTQSPSSVSASVGDRVTITCRASQGISSWLAWYQQKPGKAPNLLIYEASSLQSGVPSRFGGSGSGTDFTLTISSLQPEDFATYYCQQANGFPWTFGQGTKVEIKR
notes: Vectors V1/V2
EC50 (HGF-His tag): 0.15 nM and 0.17 nM and 0.16 nM

B9: AB062 (antibody, human IgG1, kappa, V domains shown)
VH: QVQLQQWGAGLLKPSETLSLTCAVYGGSFSGYYWSWIRQPPGKGLEWIGEINHSGSTNYNPSLKSRVTISVETSKNQFSLKLSSVTAADTAVYYCARDKWTWYFDLWGRGTLVTVSS
VL: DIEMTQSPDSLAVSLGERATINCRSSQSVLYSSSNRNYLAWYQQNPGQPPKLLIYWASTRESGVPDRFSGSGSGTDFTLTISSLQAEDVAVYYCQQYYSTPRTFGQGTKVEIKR
EC50 (biotinylated ErbB3): 0.26 nM

B10: DVD046 (HGF (seq. 1) and VEGF (seq. 1) DVD-Ig) (bispecific antibody, IgG1)
VH: QVQLVESGGGLVKPGGSLRLSCAASGFTFSDYYMSWIRQAPGKGLEWVSYISSSGSTIYYADSVKGRFTISRDNAKNSLYLQMNSLRAEDTAVYYCARDEYNSGWYVLFDYWGQGTLVTVSSASTKGPEVQLVESGGGLVQPGGSLRLSCAASGYTFTNYGMNWVRQAPGKGLEWVGWINTYTGEPTYAADFKRRFTFSLDTSKSTAYLQMNSLRAEDTAVYYCAKYPHYYGSSHWYFDVWGQGTLVTVSS
VL: DIQMTQSPSSVSASVGDRVTITCRASQGISSWLAWYQQKPGKAPNLLIYEASSLQSGVPSRFGGSGSGTDFTLTISSLQPEDFATYYCQQANGFPWTFGQGTKVEIKRTVAAPDIQMTQSPSSLSASVGDRVTITCSASQDISNYLNWYQQKPGKAPKVLIYFTSSLHSGVPSRFSGSGSGTDFTLTISSLQPEDFATYYCQQYSTVPWTFGQGTKVEIKR
notes: HC vector V1 (wild-type hIgG1 constant), LC vector V2 (kappa constant); also called DVD046L
EC50 (HGF (HGF-His tag) [6]): 0.5 nM

B11: DVD034 (HGF (seq. 1) and RON (seq. 1) DVD-Ig) (bispecific antibody, IgG1)
VH: QVQLVESGGGLVKPGGSLRLSCAASGFTFSDYYMSWIRQAPGKGLEWVSYISSSGSTIYYADSVKGRFTISRDNAKNSLYLQMNSLRAEDTAVYYCARDEYNSGWYVLFDYWGQGTLVTVSSASTKGPEVQLVQSGGGLVKPGGSLRLSCAASGFTFSSYAMHWVRQAPGKGLEWVAVISYDGSNKYYADSVKGRFTISRDNSKNTLYLQMNSLRAEDTAVYYCARFSGWPNNYYYYGMDVWGQGTTVTVSS
VL: DIQMTQSPSSVSASVGDRVTITCRASQGISSWLAWYQQKPGKAPNLLIYEASSLQSGVPSRFGGSGSGTDFTLTISSLQPEDFATYYCQQANGFPWTFGQGTKVEIKRTVAAPDVVMTQSPLSLPVTPGEPASISCRSSQSLLHSNGFNYVDWYLQKPGQSPHLLIYFGSYRASGVPDRFSGSGSGTDFTLKISRVEAEDVGVYYCMQALQTPPWTFGQGTKVEIRR
notes: Outer AB012, inner AB005; HC vector V1 (wild-type hIgG1 constant), LC vector V2 (kappa constant); also called DVD034L
EC50 [4]: 116 nM
EC50 (HGF (HGF-His tag) [6]): 0.27 nM

B12: DVD045 (VEGF (seq. 1) and HGF (seq. 1) DVD-Ig) (bispecific antibody, IgG1)
VH: EVQLVESGGGLVQPGGSLRLSCAASGYTFTNYGMNWVRQAPGKGLEWVGWINTYTGEPTYAADFKRRFTFSLDTSKSTAYLQMNSLRAEDTAVYYCAKYPHYYGSSHWYFDVWGQGTLVTVSSASTKGPQVQLVESGGGLVKPGGSLRLSCAASGFTFSDYYMSWIRQAPGKGLEWVSYISSSGSTIYYADSVKGRFTISRDNAKNSLYLQMNSLRAEDTAVYYCARDEYNSGWYVLFDYWGQGTLVTVSS
VL: DIQMTQSPSSLSASVGDRVTITCSASQDISNYLNWYQQKPGKAPKVLIYFTSSLHSGVPSRFSGSGSGTDFTLTISSLQPEDFATYYCQQYSTVPWTFGQGTKVEIKRTVAAPDIQMTQSPSSVSASVGDRVTITCRASQGISSWLAWYQQKPGKAPNLLIYEASSLQSGVPSRFGGSGSGTDFTLTISSLQPEDFATYYCQQANGFPWTFGQGTKVEIKR
notes: HC vector V1 (wild-type hIgG1 constant), LC vector V2 (kappa constant); also called DVD045H; DVD045L
EC50 (HGF (HGF-His tag) [1]): 185 nM
